{"source": "patent US20260265321A1", "about": "“PEPTIDE AND POLYPEPTIDE INHIBITING THE NF-KB SIGNALING PATHWAY” (Centre National de la Recherche Scientifique, priority 2023, published 2026)", "binders": {"B1": {"name": "G1-IKKα, full-length wt IKKα fused to the Gluc1 fragment (enzyme, human, UniProt O15111 1-745, looked up)", "chain": "MERPPGLRPGAGGPWEMRERLGTGGFGNVCLYQHRELDLKIAIKSCRLELSTKNRERWCHEIQIMKKLNHANVVKACDVPEELNILIHDVPLLAMEYCSGGDLRKLLNKPENCCGLKESQILSLLSDIGSGIRYLHENKIIHRDLKPENIVLQDVGGKIIHKIIDLGYAKDVDQGSLCTSFVGTLQYLAPELFENKPYTATVDYWSFGTMVFECIAGYRPFLHHLQPFTWHEKIKKKDPKCIFACEEMSGEVRFSSHLPQPNSLCSLVVEPMENWLQLMLNWDPQQRGGPVDLTLKQPRCFVLMDHILNLKIVHILNMTSAKIISFLLPPDESLHSLQSRIERETGINTGSQELLSETGISLDPRKPASQCVLDGVRGCDSYMVYLFDKSKTVYEGPFASRSLSDCVNYIVQDSKIQLPIIQLRKVWAEAVHYVSGLKEDYSRLFQGQRAAMLSLLRYNANLTKMKNTLISASQQLKAKLEFFHKSIQLDLERYSEQMTYGISSEKMLKAWKEMEEKAIHYAEVGVIGYLEDQIMSLHAEIMELQKSPYGRRQGDLMESLEQRAIDLYKQLKHRPSDHSYSDSTEMVKIIVHTVQSQDRVLKELFGHLSKLLGCKQKIIDLLPKVEVALSNIKEADNTVMFMQGKRQKEIWHLLKIACTQSSARSLVGSSLEGAVTPQTSAWLPPTSAEHDHSLSCVVTPQDGETSAQMIEENLNCLGHLSTIIHEANEEQGNSMMNLDWSWLTE", "notes": "Expressed in HEK293T cells for GPCA; full-length; also called Gluc1-IKKα; not shown: Gluc1 fragment of Gaussia princeps luciferase and flexible 20 amino acid linker, N-terminal"}, "B2": {"name": "FL YD/SS (other)", "chain": "MESCYNPGLDGIIESDSFKLNSSIVEPKEPAPETADGPYLVIVEQPKQRGFRFRYGCEGPSHGGLPGASSEKGRKTYPTVKICNYEGPAKIEVDLVTHSDPPRAHAHSLVGKQCSELGICAVSVGPKDMTAQFNNLGVLHVTKKNMMGTMIQKLQRQRLRSRPQGLTEAEQRELEQEAKELKKVMDLSIVRLRFSAFLRASDGSFSLPLKPVISQPIHDSKSPGASNLKISRMDKTAGSVRGGDEVYLLCDKVQKDDIEVRFYEDDENGWQAFGDFSPTDVHKQYAIVFRTPPYHKMKIERPVTVFLQLKRKRGGDVSDSKQFTYYPLVEDKEEVQRKRRKALPTFSQPFGGGSHMGGGSGGAAGGYGGAGGGGSLGFFPSSLAYSPYQSGAGPMGCYPGGGGGAQMAATVPSRDSGEEAAEPSAPSRTPQCEPQAPEMLQRAREYNARLFGLAQRSARALLDYGVTADARALLAGQRHLLTAQDENGDTPLHLAIIHGQTSVIEQIVYVIHHAQDLGVVNLTNHLHQTPLHLAVITGQTSVVSFLLRVGADPALLDRHGDSAMHLALRAGAGAPELLRALLQSGAPAVPQLLHMPDFEGLYPVHLAVRARSPECLDLLVDSGAEVEATERQGGRTALHLATEMEELGLVTHLVTKLRANVNARTFAGNTPLHLAAGLGYPTLTRLLLKAGADIHAENEEPLCPLPSPPTSDSDSDSEGPEKDTRSSFRGHTPLDLTCSTKVKTLLLNAAQNTMEPPLTPPSPAGPGLSLGDTALQNLEQLLDGPEAQGSWAELAERLGLRSLVDTYRQTTSPSGSLLRSYELAGGDLAGLLEALSDMGLEEGVRLLRGPETRDKLPSTAEVKEDSAYGSQSVEQEAEKLGPPPEPPGGLCHGHPQPQVH", "notes": "also called G2-p100 FL YD/SS; G2-p100 FL Y15S/D17S; not shown: N-terminal Gluc2 fragment of Gaussia princeps luciferase and the flexible 20 amino acid linker (pSPICA-N2)"}, "B3": {"name": "synthetic IκBα pep C308L (peptide)", "peptide": "EFTEDELPYDDLVFGGQRLTL", "notes": "also called C308L IκBα pep; IkBα pep C308L"}}, "key": {"[1]": {"biological_target": "T1, G2-p100 1-852 (UniProt Q00653 1-852)", "T1 construct": "range 1-852; not shown: Gluc2 fragment of Gaussia princeps luciferase and flexible 20 amino acid linker, N-terminal", "T1 sequence (looked up)": "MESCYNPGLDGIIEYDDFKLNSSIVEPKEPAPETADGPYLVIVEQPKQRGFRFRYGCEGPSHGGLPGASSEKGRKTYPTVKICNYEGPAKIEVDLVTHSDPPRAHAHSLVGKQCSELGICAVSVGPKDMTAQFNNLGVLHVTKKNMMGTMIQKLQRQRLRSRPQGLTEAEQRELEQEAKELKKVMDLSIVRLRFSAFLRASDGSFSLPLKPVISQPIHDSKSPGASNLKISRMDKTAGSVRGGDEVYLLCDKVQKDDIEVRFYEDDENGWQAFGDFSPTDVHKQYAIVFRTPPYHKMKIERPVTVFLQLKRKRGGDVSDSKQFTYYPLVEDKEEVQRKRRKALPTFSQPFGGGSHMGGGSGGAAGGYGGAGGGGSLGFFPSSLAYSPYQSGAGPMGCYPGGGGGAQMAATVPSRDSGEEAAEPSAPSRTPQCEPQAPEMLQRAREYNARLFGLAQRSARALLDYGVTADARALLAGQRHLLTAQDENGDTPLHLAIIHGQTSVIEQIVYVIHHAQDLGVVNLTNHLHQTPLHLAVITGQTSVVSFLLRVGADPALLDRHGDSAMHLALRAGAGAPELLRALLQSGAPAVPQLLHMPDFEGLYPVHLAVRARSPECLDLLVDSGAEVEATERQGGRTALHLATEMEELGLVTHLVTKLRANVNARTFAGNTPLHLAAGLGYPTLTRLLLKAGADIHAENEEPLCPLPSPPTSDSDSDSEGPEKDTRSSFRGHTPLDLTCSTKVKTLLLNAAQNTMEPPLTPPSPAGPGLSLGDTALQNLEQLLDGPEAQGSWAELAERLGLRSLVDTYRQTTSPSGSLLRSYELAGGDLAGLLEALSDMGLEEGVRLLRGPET", "experiment": "GPCA (Gaussia princeps protein complementation assay), G1-IKKα FL with G2-p100 constructs, NLR", "description": "(§1) HEK293T cells were transfected using the reverse transfection method. Transfection mixes containing 100 ng of pSPICA-N2 and 100 ng of pSPICA-N1 plasmids expressing test proteins plus JetPEI® (Polyplus transfection) were dispensed in white 96-well plates. HEK293T cells were then seeded on the DNA mixes at a concentration of 4.2×10^4 cells per well. 48 hours after transfection, cells were washed with 50 μl of PBS and lysed with 40 μl of Renilla lysis buffer (Promega, E2820) for 30 minutes with agitation. Gaussia princeps luciferase enzymatic activity was measured using a Berthold Centro LB960 luminometer by injecting 50 μl per well of luciferase substrate reagent (Promega, E2820) and counting luminescence for 10 seconds. Results are expressed as a fold change normalized over the sum of controls, specified herein as normalized luminescence ratio (NLR) 29. For a given protein pair A/B, NLR=(Gluc1-A+Gluc2-B)/[(Gluc1-A+Gluc2)+(Gluc1+Gluc2-B)]. All interactions were measured in three independent experiments, with each experiment being carried out in triplicate. The expression levels of Gluc1- and Gluc2-fused proteins were checked by Western blotting. 24 hours post-transfection, HEK293T cells were collected, lysed by incubation on ice and centrifuged. Aliquots of cleared supernatants were loaded onto an 10% SDS-PAGE gel."}, "[2]": {"biological_target": "B1", "experiment": "GPCA (Gaussia princeps protein complementation assay), G1-IKKα FL with G2-p100 constructs, NLR", "description": "as §1"}, "[3]": {"biological_target": "T2, IKKα(10-667) S176E/S180E homodimer, 6×His tag removed (human, UniProt O15111 10-667)", "T2 construct": "also called purified IKKα", "T2 sequence (looked up)": "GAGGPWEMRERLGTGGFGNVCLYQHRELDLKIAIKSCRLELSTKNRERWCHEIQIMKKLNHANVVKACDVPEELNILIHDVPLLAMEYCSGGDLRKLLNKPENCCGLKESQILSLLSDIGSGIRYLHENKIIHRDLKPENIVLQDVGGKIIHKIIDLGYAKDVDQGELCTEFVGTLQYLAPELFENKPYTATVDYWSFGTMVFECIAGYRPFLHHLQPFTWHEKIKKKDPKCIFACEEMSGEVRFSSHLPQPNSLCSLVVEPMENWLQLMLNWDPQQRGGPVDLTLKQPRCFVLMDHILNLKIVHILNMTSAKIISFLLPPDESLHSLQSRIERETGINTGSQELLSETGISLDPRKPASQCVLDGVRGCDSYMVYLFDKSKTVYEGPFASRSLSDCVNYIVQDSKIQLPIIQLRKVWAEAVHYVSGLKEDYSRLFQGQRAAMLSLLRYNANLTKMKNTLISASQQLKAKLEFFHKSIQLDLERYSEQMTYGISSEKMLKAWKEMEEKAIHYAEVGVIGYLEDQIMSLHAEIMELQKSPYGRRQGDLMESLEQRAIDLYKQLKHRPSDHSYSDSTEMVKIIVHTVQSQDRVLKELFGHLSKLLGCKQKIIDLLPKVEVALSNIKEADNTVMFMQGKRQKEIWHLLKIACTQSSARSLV", "experiment": "ITC", "description": "(§2) All experiments were performed in ITC buffer (20 mM HEPES pH 8.0, 150 mM NaCl, 1 mM TCEP) unless otherwise stated. […] Just before the ITC experiments, IKKα or IKKβ samples were concentrated, incubated at room temperature for 30 minutes and centrifuged at 11000 g to remove eventual precipitate. The final concentrations of IKKα and IKKβ in the sample cell varied between 22 and 50 μM depending on the measurement. […] The concentration of peptides in the syringe varied between 220 and 975 μM depending on the measurement.\n(§3) All ITC experiments were performed at 25° C. The data were fitted to a 1:1 binding model. […] All data were processed using NITPIC software and global fitting of two datasets was carried out using SEDPHAD."}, "[4]": {"biological_target": "T3, IKKβ(1-669) S177E/S181E homodimer, 6×His tag removed (human, UniProt O14920 1-669)", "T3 sequence (looked up)": "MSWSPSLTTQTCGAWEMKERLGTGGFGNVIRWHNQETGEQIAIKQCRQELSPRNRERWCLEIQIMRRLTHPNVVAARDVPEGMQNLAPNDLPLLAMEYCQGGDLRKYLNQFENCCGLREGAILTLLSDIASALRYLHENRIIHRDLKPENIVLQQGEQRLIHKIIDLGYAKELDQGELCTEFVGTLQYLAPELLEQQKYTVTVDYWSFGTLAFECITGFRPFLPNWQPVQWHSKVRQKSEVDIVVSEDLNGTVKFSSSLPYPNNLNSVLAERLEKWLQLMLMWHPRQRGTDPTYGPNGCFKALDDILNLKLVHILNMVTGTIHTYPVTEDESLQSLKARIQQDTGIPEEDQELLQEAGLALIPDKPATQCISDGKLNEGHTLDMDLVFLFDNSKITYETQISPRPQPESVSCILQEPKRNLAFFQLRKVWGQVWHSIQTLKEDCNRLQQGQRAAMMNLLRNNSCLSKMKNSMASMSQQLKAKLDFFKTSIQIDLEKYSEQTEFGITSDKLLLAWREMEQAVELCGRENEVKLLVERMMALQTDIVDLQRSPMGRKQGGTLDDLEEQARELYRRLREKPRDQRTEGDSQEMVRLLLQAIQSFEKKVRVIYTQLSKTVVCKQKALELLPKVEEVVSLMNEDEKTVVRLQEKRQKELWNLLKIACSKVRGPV", "experiment": "ITC", "description": "as §2, §3"}, "[5]": {"biological_target": "T2, IKKα(10-667) S176E/S180E homodimer, …", "experiment": "ITC, 25 °C, synthetic peptide into IKK homodimer, 1:1 model", "description": "as §2, §3"}, "[6]": {"biological_target": "T3, IKKβ(1-669) S177E/S181E homodimer, …", "experiment": "ITC, 25 °C, synthetic peptide into IKK homodimer, 1:1 model", "description": "as §2, §3"}}}
{"binder": "B1", "values": [{"measurement": "binding result", "setting": "[1]", "value": "binds"}]}
{"binder": "B2", "values": [{"measurement": "binding result", "setting": "[2]", "value": "binds"}]}
{"binder": "B3", "values": [{"measurement": "fold enhancement of affinity against IκBα pep wt", "setting": "[3]", "value": 25, "unit": "fold"}, {"measurement": "fold enhancement of affinity against IκBα pep wt", "setting": "[4]", "value": 15, "unit": "fold"}, {"measurement": "Kd", "setting": "[5]", "value": 0.35, "unit": "µM"}, {"measurement": "N (binding stoichiometry)", "setting": "[5]", "value": 0.65}, {"measurement": "TΔS", "setting": "[5]", "value": -4.71, "unit": "kcal/mol"}, {"measurement": "ΔG", "setting": "[5]", "value": -8.8, "unit": "kcal/mol"}, {"measurement": "ΔH", "setting": "[5]", "value": -13.5, "unit": "kcal/mol"}, {"measurement": "Kd", "setting": "[6]", "value": 2.6, "unit": "µM"}, {"measurement": "N (binding stoichiometry)", "setting": "[6]", "value": 0.63}, {"measurement": "TΔS", "setting": "[6]", "value": -4.59, "unit": "kcal/mol"}, {"measurement": "ΔG", "setting": "[6]", "value": -7.61, "unit": "kcal/mol"}, {"measurement": "ΔH", "setting": "[6]", "value": -12.2, "unit": "kcal/mol"}]}
